Experiment [1] has as its target wild-type BrxL (Acinetobacter sp. 394). In words: cryo-EM structure; wild-type BrxL, high molecular weight SEC fractions, ~0.8 mg/ml, no added ATP, no bound DNA; C7 symmetry.
Experiment [2] addresses BrxL(E280Q) (Acinetobacter sp. 394). In words: cryo-EM structure; BrxL(E280Q), high molecular weight SEC fractions with co-purified host DNA, no added ATP; C1 refinement.

In turn, wild-type BrxL (natural protein) yielded a stoichiometry N in experiment [1] of 14. In turn, BrxL(E280Q) (natural protein) yielded a stoichiometry N in experiment [2] of 12.

Broadly, the stoichiometry N is the number of molecules, sites or subunits per partner or assembly.

The record behind these values is paper PMC10164562.
